In patent US20250320312A1 (OXITOPE PHARMA B V, published 2025):
Positions count from the first letter of the chain named.

Legend:
[1] = target: BSA (UniProt P02769); test: scFv ELISA
[2] = target: T1, Peptide 8: Biotin-AEAAAKEAAAKEAAAKEAAAKAAA-Tyr-acid (N-terminal biotin; C-terminal acid); test: scFv ELISA
T1 construct: control peptide without PC
T1 peptide: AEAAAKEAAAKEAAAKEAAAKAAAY
Method in brief: (§1)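 Bound scFv was read as OD450 after HRP–anti-V5 detection, TMB development and HCl stop. PPE with BSA was incubated 1 h at RT on BSA-blocked wells coated overnight at 4° C. with peptide, or on streptavidin wells loaded 1 h with biotinylated PC-peptides at 1 μg/mL.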

[3] = target: T2, Peptide 5: Biotin-AEAAAKEAAAKEAAAKEAAAKAAA-[Tyr(PC)]-acid (N-terminal biotin; C-terminal Tyr(PC), PC = p-diazophenyl phosphoryl choline; C-terminal acid); test: scFv ELISA
T2 construct: synthetic PC-conjugated peptide; the antibodies are directed at the phosphocholine group
T2 peptide: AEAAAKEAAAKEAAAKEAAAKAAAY
Method in brief: as §1

[4] = target: T3, Peptide 4: Biotin-AGGGGSGGGGSGGGGSAAA-Tyr-acid (N-terminal biotin; C-terminal acid); test: scFv ELISA
T3 construct: control peptide without PC
T3 peptide: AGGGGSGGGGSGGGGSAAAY
Method in brief: as §1

[5] = target: T4, Peptide 1: Biotin-AGGGGSGGGGSGGGGSAAA-[Tyr(PC)]-acid (N-terminal biotin; C-terminal Tyr(PC), PC = p-diazophenyl phosphoryl choline; C-terminal acid); test: scFv ELISA
T4 construct: synthetic PC-conjugated peptide; the antibodies are directed at the phosphocholine group
T4 peptide: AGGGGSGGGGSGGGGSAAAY
Method in brief: as §1

[6] = target: T5, Peptide 1: Biotin-AGGGGSGGGGSGGGGSAAA-[Tyr(PC)]-acid (N-terminal biotin; C-terminal Tyr(PC), PC = p-diazophenyl phosphoryl choline; C-terminal acid); test: scFv ELISA
T5 construct: Synthetic phosphocholine-conjugated peptide
T5 peptide: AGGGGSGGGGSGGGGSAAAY
Method in brief: as §1

[7] = target: T6, Peptide 8: Biotin-AEAAAKEAAAKEAAAKEAAAKAAA-Tyr-acid (N-terminal biotin; C-terminal acid); test: scFv ELISA
T6 construct: Control peptide without PC
T6 peptide: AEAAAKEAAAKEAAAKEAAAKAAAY
Method in brief: as §1

[8] = target: T7, Peptide 5: Biotin-AEAAAKEAAAKEAAAKEAAAKAAA-[Tyr(PC)]-acid (N-terminal biotin; C-terminal Tyr(PC), PC = p-diazophenyl phosphoryl choline; C-terminal acid); test: scFv ELISA
T7 construct: Synthetic phosphocholine-conjugated peptide
T7 peptide: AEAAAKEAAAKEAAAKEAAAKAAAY
Method in brief: as §1

[9] = target: T8, Peptide 4: Biotin-AGGGGSGGGGSGGGGSAAA-Tyr-acid (N-terminal biotin; C-terminal acid); test: scFv ELISA
T8 construct: Control peptide without PC
T8 peptide: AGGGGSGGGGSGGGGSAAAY
Method in brief: as §1

[10] = target: Peptide 5: Biotin-…-[Tyr(PC)]-acid; test: scFv ELISA
[11] = target: BSA (UniProt P02769); test: scFv ELISA, periplasmic extract on coated BSA, anti-V5-HRP detection
[12] = target: T9, Peptide 8: Biotin-…-Tyr-acid; test: scFv ELISA, periplasmic extract on coated peptide, anti-V5-HRP detection
T9 sequence (peptide, N-terminal biotin; C-terminal acid): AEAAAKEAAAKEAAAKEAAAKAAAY

[13] = target: T10, Peptide 4: Biotin-…-Tyr-acid; test: as above
T10 sequence (peptide, N-terminal biotin; C-terminal acid): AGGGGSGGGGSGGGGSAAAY

[14] = target: PC-BSA; test: ELISA (DELFIA TRF), PC-BSA coated, titrated IgG1
PC-BSA, sequence (P02769 25-607 limits assumed, form in doubt): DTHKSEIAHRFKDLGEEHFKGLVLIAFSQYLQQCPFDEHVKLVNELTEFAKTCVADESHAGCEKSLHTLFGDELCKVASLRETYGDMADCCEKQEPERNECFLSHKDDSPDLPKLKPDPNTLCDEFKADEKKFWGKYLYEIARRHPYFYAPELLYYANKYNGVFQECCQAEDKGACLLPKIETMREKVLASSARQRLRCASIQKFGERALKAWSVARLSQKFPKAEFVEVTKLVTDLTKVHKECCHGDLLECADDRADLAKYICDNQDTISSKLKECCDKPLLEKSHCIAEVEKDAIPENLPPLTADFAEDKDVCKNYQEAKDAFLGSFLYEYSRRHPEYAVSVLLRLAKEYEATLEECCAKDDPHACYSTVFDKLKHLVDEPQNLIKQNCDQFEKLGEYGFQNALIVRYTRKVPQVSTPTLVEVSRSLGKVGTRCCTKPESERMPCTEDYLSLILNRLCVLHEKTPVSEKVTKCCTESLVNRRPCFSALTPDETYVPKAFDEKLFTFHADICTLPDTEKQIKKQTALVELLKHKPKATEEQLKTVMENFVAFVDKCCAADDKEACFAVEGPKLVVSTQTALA

[15] = target: T11, Peptide 1: Biotin-AGGGGSGGGGSGGGGSAAA-[Tyr(PC)]-acid (N-terminal biotin; C-terminal Tyr(PC), PC = p-diazophenyl phosphoryl choline; C-terminal acid); test: scFv ELISA
T11 peptide: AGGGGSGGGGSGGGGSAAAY
Method in brief: as §1

[16] = target: T12, Peptide 4: Biotin-AGGGGSGGGGSGGGGSAAA-Tyr-acid (N-terminal biotin; C-terminal acid; no PC); test: scFv ELISA
T12 construct: control peptide without PC
T12 peptide: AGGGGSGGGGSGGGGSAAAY
Method in brief: as §1

[17] = target: T13, Peptide 8: Biotin-AEAAAKEAAAKEAAAKEAAAKAAA-Tyr-acid (N-terminal biotin; C-terminal acid; no PC); test: scFv ELISA
T13 construct: control peptide without PC
T13 peptide: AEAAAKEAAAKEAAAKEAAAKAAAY
Method in brief: as §1

[18] = target: T14, Peptide 5: Biotin-AEAAAKEAAAKEAAAKEAAAKAAA-[Tyr(PC)]-acid (N-terminal biotin; C-terminal Tyr(PC), PC = p-diazophenyl phosphoryl choline; C-terminal acid); test: scFv ELISA
T14 peptide: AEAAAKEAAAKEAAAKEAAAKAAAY
Method in brief: as §1

BSA, sequence (P02769 25-607 limits assumed): as the sequence (P02769 25-607 limits assumed, form in doubt) above

B1: PcOxP_DB02_E06 (scFv, V domains shown)
VH: EVQLLESGGGLVQPGGSLRLSCAASGFTFSDEYMEWVRQAPGKGLEWVAASRGKGNSYTTEYADSVKGRFTISRDNSKNTLYLQMNSLRAEDTAVYYCARDYYGSSYWYFDVWGQGTLVTVSS
VL: DIQMTQSPSSLSASVGDRVTITCTASESLYSSKHKVHYLAWYQQKPGKAPKLLIYGASNRYIGVPSRFSGSGSGTDFTLTISSLQPEDFATYYCAQFYSYPLTFGGGTKVEIK
notes: scFv in periplasmic extract
OD450 [1]: 0.1 OD450 | OD450 [2]: 0.04 OD450 | OD450 [3]: 0.08 OD450 | OD450 [4]: 0.04 OD450 | OD450 [5]: 0.06 OD450

B2: PcOxP_DB02_G03 (scFv, V domains shown)
VH: B1 VH with T28G, E32F, G53N, G55A, S57D, F110H
VL: DIVMTQSPDSLAVSLGERATINCTASEDLYSSKHKVHYLAWYQQKPGQPPKLLIYGTSNRYIGVPDRFSGSGSGTDFTLTISSLQAEDVAVYYCAQYYSYPLTFGGGTKVEIK
notes: scFv in periplasmic extract
OD450 [1]: 0.06 OD450 | OD450 [6]: 0.06 OD450 | OD450 [7]: 0.05 OD450 | OD450 [8]: 0.1 OD450 | OD450 [9]: 0.05 OD450

B3: PcOxP_DB02_H02 (scFv, V domains shown)
VH: B1 VH with F27P, E32F, G53N, G55A, S57D
VL: B2 VL with D28S, T57A, Y97F, S99D
notes: scFv in periplasmic extract
OD450 [10]: 0.19 OD450 | OD450 [1]: 0.06 OD450 | OD450 [6]: 0.07 OD450 | OD450 [7]: 0.06 OD450 | OD450 [9]: 0.04 OD450

B4: PcOxP_DB04_G11 (scFv) (scFv, V domains shown)
VH: B1 VH with E32H, G53W, G55A, S57D
VL: B2 VL with D28S, T57A, R60T, Y97F
OD450 [11]: 0.07 OD450

B5: PcOxP_DB04_H01 (scFv) (scFv, part only; not given: linker, domain order, V5 tag, V domains shown, not shown: another chain or arm of the molecule; small tags and cut ends)
VH: B1 VH with E32Y, G53N, G55Y, S57D
VL: B2 VL with D28S, T57A, I62S, Y97F, S99N
OD450 [11]: 0.07 OD450 | OD450 [12]: 0.07 OD450 | OD450 [13]: 0.06 OD450

B6: PcOxP_DB03_G12 (human IgG1) (antibody, V domains shown)
VH: B1 VH with E32Y, G53N, G55Y, S57D
VL: B2 VL with T24K, A25S, D28S, L29V, V36K, T57A, Y97F
EC50 [14]: 557 pM

B7: PcOxP_DB04_A09 (human IgG1) (antibody, V domains shown)
VH: B1 VH with E32Y, G53N, G55W, S57D
VL: B1 VL with S26E, R60L, I62S
EC50 [14]: 269 pM

B8: PcOxP_DB04_E08 (human IgG1) (antibody, V domains shown)
VH: B1 VH with F29S, E32F, M34L, G53N, G55W, S57D
VL: B2 VL with D28S, T57V, Y97F
EC50 [14]: 251 pM

B9: PcOxP_DB01_F06 (human IgG1) (antibody, V domains shown)
VH: B1 VH with F27D, E32F, G53N, G55A, S57D
VL: DIVMTQSPDSLAVSLGERATINCKSSQSLYYSSNKKNYLAWYQQKPGQPPKLLIYGASNRYGGVPDRFSGSGSGTDFTLTISSLQAEDVAVYYCAQFYRYPLTFGGGTKVEIK
EC50 [14]: 216 pM

B10: PcOxP_DB02_F10 (human IgG1) (antibody, V domains shown)
VH: B1 VH with E32Q, G53N, G55A, S57D
VL: B9 VL with K24T, L29V, Y30L, Y31S, S33K, N34H, K35N, G62W, R99S
EC50 [14]: 659 pM

B11: PcOxP_DB02_G04 (human IgG1) (antibody, V domains shown)
VH: B1 VH with E32Y, G53W, G55A, S57D
VL: B9 VL with S25A, L29V, Y30L, S33K, N37H, Y61Q, G62I, R99V
EC50 [14]: 231 pM

B12: PcOxP_DB04_G01 (human IgG1) (antibody, V domains shown)
VH: B1 VH with E32Y, G53N, G55W, S57D, G104L
VL: B9 VL with S25A, L29V, Y30L, Y31S, S33K, K35N, K36V, G62I, R99Q
EC50 [14]: 257 pM

B13: PcOxP_DB01_B06 (human IgG1) (antibody, V domains shown)
VH: B1 VH with D31S, E32Y, G53N, G55Y, S57D, Y107T
VL: B2 VL with D28S, T57A, Y97F
EC50 [14]: 219 pM

B14: PcOxP_DB01_F04 (human IgG1) (antibody, V domains shown)
VH: B1 VH with D31S, E32Y, G53N, G55Y, S57D
VL: B1 VL with S58V, S99R
EC50 [14]: 344 pM

B15: PcOxP_DB01_F11 (human IgG1) (antibody, V domains shown)
VH: B1 VH with D31S, E32Y, G53N, G55A, S57D, F110Y
VL: B2 VL with D28S, T57A, Y97F
EC50 [14]: 244 pM

B16: PcOxP_DB01_H08 (human IgG1) (antibody, V domains shown)
VH: B1 VH with F29H, E32F, G53N, G55A, S57D
VL: DIQMTQSPSSLSASVGDRVTITCRASESISSSKHKHYLAWYQQKPGKAPKLLIYGASNRYIGVPSRFSGSGSGTDFTLTISSLQPEDFATYYCAQFYVYPLTFGGGTKVEIK
EC50 [14]: 244 pM

B17: PcOxP_DB02_A05 (human IgG1) (antibody, V domains shown)
VH: B1 VH with F29G, E32F, G53N, G55W, S57D
VL: B2 VL with D28S, T57A, S58G, Y97F
EC50 [14]: 264 pM

B18: PcOxP_DB02_B04 (human IgG1) (antibody, V domains shown)
VH: B1 VH with E32Y, G53N, G55W, S57D
VL: B2 VL with D28S, T57A, Y97F
EC50 [14]: 278 pM

B19: PcOxP_DB03_G03 (human IgG1) (antibody, V domains shown)
VH: B1 VH with F29S, E32F, G53N, G55A, S57D
VL: B1 VL with E27Q, L29I, Y30S, R60H
EC50 [14]: 216 pM

B20: PcOxP_DB03_G11 (human IgG1) (antibody, V domains shown)
VH: B1 VH with D31S, E32Y, G53N, G55A, S57D
VL: B9 VL with L29V, Y30L, Y31S, S33K, N34H, G62I, R99S
EC50 [14]: 244 pM

B21: PcOxP_DB03_H03 (human IgG1) (antibody, V domains shown)
VH: B1 VH with F29G, E32F, G53N, G55W, S57D
VL: B16 VL with R24T, I29L, N58S, I61S, V98S
EC50 [14]: 229 pM

B22: PcOxP_DB04_A04 (human IgG1) (antibody, V domains shown)
VH: B1 VH with E32F, G53N, G55W, S57D
VL: B9 VL with K24T, S25A, L29V, Y31S, S33K, N37H, G62I
EC50 [14]: 294 pM

B23: PcOxP_DB02_C09 (human IgG1) (antibody, V domains shown)
VH: B1 VH with E32A, G53N, G55A, S57D
VL: B1 VL with S58G, S99F
EC50 [14]: 394 pM

B24: PcOxP_DB01_H07 (scFv, V domains shown)
VH: B1 VH with E32H, G53N, G55Y, S57D, Y102I
VL: B2 VL with D28S, L29V, H34N, V36K, T57A, Y97F
notes: scFv in periplasmic extract
OD450 [10]: 0.92 OD450 | OD450 [1]: 0.07 OD450 | OD450 [15]: 0.1 OD450 | OD450 [16]: 0.05 OD450 | OD450 [17]: 0.05 OD450

B25: PcOxP_DB01_H09 (scFv, V domains shown)
VH: B1 VH with E32Y, G53N, G55A, S57T, F110D
VL: B2 VL with D28S, T57A, Y97F
notes: scFv in periplasmic extract
OD450 [1]: 0.09 OD450 | OD450 [15]: 0.06 OD450 | OD450 [16]: 0.09 OD450 | OD450 [18]: 0.09 OD450 | OD450 [17]: 0.04 OD450
